A value given as a limit tells only on which side of the number the result lay.

Data set [1] deals with T1, SgrAI restriction endonuclease (UniProt Q9F6L0 1-339).
T1 sequence: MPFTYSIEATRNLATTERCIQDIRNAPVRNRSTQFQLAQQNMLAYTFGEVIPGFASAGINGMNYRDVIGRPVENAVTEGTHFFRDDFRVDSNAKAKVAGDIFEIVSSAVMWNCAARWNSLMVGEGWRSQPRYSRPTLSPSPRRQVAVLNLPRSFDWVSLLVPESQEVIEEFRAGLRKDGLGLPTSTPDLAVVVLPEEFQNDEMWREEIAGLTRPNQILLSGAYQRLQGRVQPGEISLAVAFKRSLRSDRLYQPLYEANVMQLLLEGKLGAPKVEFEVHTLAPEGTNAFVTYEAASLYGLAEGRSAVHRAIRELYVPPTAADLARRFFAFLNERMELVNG
Nature of the data set: cryo-EM structure (2.7 A); Ca2+ (sites A and B), filamentous, intact scissile phosphate; EM sample buffer not given in the material; Ca2+ in place of Mg2+; SgrAI stored after SEC in 25 mM Tris-HCl pH 8, 150 mM NaCl, 1 mM DTT. The following applies: protein: recombinant; chain copies: 2; blunt.

Data set [2] deals with the molecule itself. Nature of the data set: crystal structure; DNA-free (apo) SgrAI with Ca2+; hanging drop, 5% PEG 4000, 0.1 M imidazole pH 6.5, 0.1 M NaCl, 5 mM Ca(OAc)2, 17 °C; two chains per asymmetric unit forming the dimer.
Data set [3] concerns the molecule itself. Nature of the data set: cryo-EM structure; run-on oligomeric filaments of SgrAI dimers bound to 40 bp primary site DNA (CACCGGTG, intact scissile phosphate); 4.9 uM SgrAI, 41 uM dsDNA, 10 mM Ca2+, room temperature 1 h; helical symmetry rise 21.2 A, twist -85.8 deg.

B1: 40-1 (40 bp primary site DNA) (dsDNA)
DNA 1: GATGCGTGGGTCTTCACACCGGTGGATGCGTGGGTCTTCA
DNA 2: TGAAGACCCACGCATCCACCGGTGTGAAGACCCACGCATC
For B1, the binding result in data set [1] is listed as “binds”.

B2: SgrAI type II restriction endonuclease, wildtype (enzyme)
chain: MPFTYSIEATRNLATTERCIQDIRNAPVRNRSTQFQLAQQNMLAYTFGEVIPGFASAGINGMNYRDVIGRPVENAVTEGTHFFRDDFRVDSNAKAKVAGDIFEIVSSAVMWNCAARWNSLMVGEGWRSQPRYSRPTLSPSPRRQVAVLNLPRSFDWVSLLVPESQEVIEEFRAGLRKDGLGLPTSTPDLAVVVLPEEFQNDEMWREEIAGLTRPNQILLSGAYQRLQGRVQPGEISLAVAFKRSLRSDRLYQPLYEANVMQLLLEGKLGAPKVEFEVHTLAPEGTNAFVTYEAASLYGLAEGRSAVHRAIRELYVPPTAADLARRFFAFLNERMELVNG
notes: homodimer of 74 kDa; in the crystal it is DNA-free with Ca2+; also called SgrAI dimer; source: E. coli BL21 (DE3), purified (Talon resin, heparin FF, Superdex-200 SEC)
As a reminder, the stoichiometry N is a count of units in the complex or per binding partner. Take B2: the “stoichiometry N” value in data set [2] is 2 chains per dimer; in data set [3], < 10 DBDs (DNA-bound SgrAI dimers) per filament.

The values are drawn from article PMC8960973, “Pretransition state and apo structures of the filament-forming enzyme SgrAI elucidate mechanisms of activation and substrate specificity” (The Journal of Biological Chemistry, 2022).
